Data taken from patent US20160362487A1 (Regeneron, published 2016).
Changes are numbered by the printed parent chain. Names and notes keep the numbering of the source.

T1: human IL-33 (R&D Systems, #3625-IL-010/CF) (human, UniProt O95760 112-270)
T1 sequence (looked up): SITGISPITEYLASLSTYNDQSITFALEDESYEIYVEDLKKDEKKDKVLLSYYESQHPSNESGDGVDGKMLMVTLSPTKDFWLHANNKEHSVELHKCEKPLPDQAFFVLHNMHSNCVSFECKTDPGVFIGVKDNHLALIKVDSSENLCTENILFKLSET

T2: cynomolgus monkey IL-33 expressed with a C-terminal hexahistidine tag (cynomolgus monkey)
T2 construct: also called MfIL-33-6His; Mf-IL-33-6His
T2 chain: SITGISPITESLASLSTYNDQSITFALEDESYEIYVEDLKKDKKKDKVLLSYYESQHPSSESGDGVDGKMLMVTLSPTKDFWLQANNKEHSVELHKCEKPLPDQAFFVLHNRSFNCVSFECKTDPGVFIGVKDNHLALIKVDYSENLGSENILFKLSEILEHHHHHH

T3: biotinylated hIL-33 protein (R&D systems, Cat #3625-IL/CF) (human, UniProt O95760 112-270, biotinylated (sites not given))
T3 construct: Same commercial protein as m21, biotin-labelled; also called biotin-hIL-33
T3 sequence (looked up): T1 sequence (looked up)

B1: H1M9568N (antibody, mouse IgG1, V domains shown)
VH: QVLLVQSGAEVKKPGATVKVSCKASGSTFTGYYMHWVRQAPGQGLEWMGWINPNNGGTNYAQKFQGRVTMTRDTSISTAYMELSRLRSDDTAVYYCARELRYNWKSWGQGTLVTVSS
VL: EIVLTQSPGTLSLSPGERVTLSCRASQSVGRPYLAWYQQIPGQAPRLLIYGASSRATDIPDRFSGNGSGTDFTLTISRLEPEDFAVYYCQQYDNSPYTFGQGTRLEIK
notes: Human variable domains, mouse IgG1 Fc (H1M)
B2: H4H9629P (antibody, human IgG4, V domains shown)
VH: EVQLVESGGGLVQPGGSLRLSCAASGFTFRSFAMSWVRQAPGKGLELVSDLRTSGGSTYYADSVKGRLTISRDNSKNTLYLQMNSLRAEDTAVYYCAKSHYSTSWFGGFDYWGQGTLVTVSS
VL: DIQMTQSPSSVSASVGDRVTITCRASQGFSSWLAWYQQKPGKAPKLLIYAASSLQSGVPSRFSGSGSGTDFTLTITNLQPEDFATYYCQQANSFPLTFGGGTKVEIK
notes: Human IgG4 Fc (H4H)
B3: H4H9633P (antibody, human IgG4, V domains shown)
VH: EVQLVESGGGLVQPGGSLRLSCAASGFTFSSYVMSWVRQAPGKGLEWVSSISGNGGSTNYADSVKGRFTISRDNSKNTLFLEMNSLRAEDTAVYYCAKSLGTTTTFLGFDYWGQGTLVTVSS
VL: B2 VL with F29I, D70Y, T76S, N77S
notes: Human IgG4 Fc (H4H)
B4: H1M9565N (antibody, mouse IgG1, V domains shown)
VH: QVTLKESGPVLVKPTESLTLTCSVSGFSLSNVRMGVSWIRQSPGKALEWLAHIFSNDEKSYTTSLKTRLTISKDTSRSQVVLTMTDMDPGDTATYYCARIRNLAFNYWGQGTLVTVSS
VL: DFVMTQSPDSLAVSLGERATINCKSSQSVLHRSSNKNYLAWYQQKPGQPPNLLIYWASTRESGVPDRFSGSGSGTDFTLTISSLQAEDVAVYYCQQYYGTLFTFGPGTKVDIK
notes: as for B1
B5: H4H9640P (antibody, human IgG4, V domains shown)
VH: QVQLQESGPGLVKPSETLSLTCTVSGGSISSYYWSWIRQPPGKGLELIGYIYYSGSTNYNPSLKSRVTISVDTSKNHFSLKLSSVTAADTAVYYCARSQYTSSWYGSFDIWGQGTMVTVSS
VL: DIQMTQSPSSVSASVGDRVTITCRASQGISTWLAWFQQKPGKAPKLLIYAASTLQGGVPSRFSGSGSGPEFTLTISSLQPEDFATYYCQQANSFPWTFGQGTKVEIK
notes: Human IgG4 Fc (H4H)
B6: H1M9566N (antibody, mouse IgG1, V domains shown)
VH: EVQLLESGGDLVQPGGSLRLSCAASGFTFSSYAMSWVRQAPGKGLEWVSVISGSGSSTDYADSVKGRFTISRDNSRDTLHLQMNSLRAEDTAVYYCAKTFYYFYGLDVWGQGTTVTVSS
VL: DIQMTQSPSSLSASLRDRVTITCRASQGISNYLAWYQQKPGKVPKVLIYAASTLQSGVPSRFSGSGSGTVFTLTISSLQTEDVATYYCQKYSSAPFTFGPGTKVDIK
notes: as for B1

target: T1, human IL-33 (R&D Systems, …); test: cell-based or functional assay

IC50, inhibition of 10 pM hIL-33 activation of HEK293/hST2/NFkB-luciferase cells	Binder
2.5e-10 M	B1
1.3e-11 M	B2
2.2e-10 M	B3
2.9e-08 M	B4
3e-11 M	B5
9.5e-10 M	B6

target: T1, human IL-33 (R&D Systems, …); test: SPR 25C pH7.4, mAb captured
Procedure: (§1) Equilibrium dissociation constants (KD values) for IL-33 binding to purified anti-IL-33 monoclonal antibodies were determined using a real-time surface plasmon resonance biosensor using a Biacore 4000 instrument. The Biacore sensor surface was first derivatized by amine coupling with either a polyclonal rabbit anti-mouse antibody (GE, # BR-1008-38) or with a monoclonal mouse anti-human Fc antibody (GE, # BR-1008-39) to capture anti-IL-33 monoclonal antibodies expressed with mouse or with human IgG4 constant regions, respectively. All Biacore binding studies were performed in 0.01M ADA pH 7.4, 0.15M NaCl, 3 mM EDTA, and 0.05% v/v Surfactant Tween-20 (ABS-ET running buffer). […] Association of either hIL-33 or MfIL-33-6His to the captured monoclonal antibody was monitored for 4 minutes and their dissociation in ABS-ET running buffer was monitored for 10 minutes. The effect of reduced pH on the binding of each anti-IL-33 antibody to either hIL-33 or MfIL-33-6His was studied using an in-line pH chase assay format in 0.01M ADA pH 6.0, 0.15M NaCl, 3 mM EDTA, and 0.05% v/v Surfactant Tween-20 (ABS-ET pH6 buffer). To achieve this, association of either hIL-33 or MfIL-33-6His to the captured monoclonal antibody was monitored for 4 minutes in ABS-ET running buffer. Following a 30 second dissociation of either hIL-33 or MfIL-33-6His in ABS-ET running buffer, ABS-ET pH6 buffer was injected for 3 minutes, and the analyte dissociation under the low-pH conditions was measured. All the binding kinetic experiments were performed at both 25° C. and 37° C. Kinetic association (kₐ) and dissociation (kd) constants were determined by fitting the real-time sensorgrams to a 1:1 binding model using Scrubber 2.0c curve fitting software. Binding dissociation equilibrium constants (KD) and dissociative half-lives (t½) were calculated from the kinetic rate constants as: […]

Kd	koff	kon	t½	Binder
0.184 nM	0.00013 s⁻¹	702000 M⁻¹ s⁻¹	89 min	B1
0.29 nM	0.000226 s⁻¹	777000 M⁻¹ s⁻¹	51 min	B2
0.432 nM	0.000283 s⁻¹	656000 M⁻¹ s⁻¹	41 min	B3
0.26 nM	0.000237 s⁻¹	912000 M⁻¹ s⁻¹	49 min	B5
		127000 M⁻¹ s⁻¹		B6

Target: T2, cynomolgus monkey IL-33 expressed with …
Test: SPR 25C pH7.4, mAb captured
Procedure: as §1

Kd	koff	kon	t½	Binder
1.07 nM	0.000261 s⁻¹	244000 M⁻¹ s⁻¹	44 min	B1
23.9 nM	0.0135 s⁻¹	562000 M⁻¹ s⁻¹	0.9 min	B2
38 nM	0.00997 s⁻¹	262000 M⁻¹ s⁻¹	1.2 min	B3
1.77 nM	7.2e-05 s⁻¹	40600 M⁻¹ s⁻¹	160 min	B4
3.06 nM	0.00137 s⁻¹	450000 M⁻¹ s⁻¹	8 min	B5
0.333 nM	9.75e-05 s⁻¹	293000 M⁻¹ s⁻¹	119 min	B6

target: T3, biotinylated hIL-33 protein (R&D …); test: competition ELISA, 30 pM biotin-hIL-33 on coated hST2-hFc
Procedure: The ability of anti-IL-33 antibodies to block either human IL-33 (hIL-33) or cynomologus monkey IL-33 binding to the human ST2 receptor was measured using a competition sandwich ELISA. […] The antibody/IL-33 mixtures were incubated for 1 hour at room temperature before they were transferred to the hST2-hFc-coated microtiter plates. After incubating for 1 hour at room temperature, the wells were then washed, and plate-bound biotin-hIL-33 was detected with streptavidin conjugated with horse-radish peroxidase (HRP) (Thermo Scientific, Cat # N200), and plate-bound MfIL-33-6His was detected with a HRP conjugated anti-His monoclonal antibody (Qiagen, #34460). All samples were developed with a TMB solution (BD biosciences, #51-2607KC) to produce a colorimetric reaction and then quenched by acidification with 1M sulfuric acid before measuring absorbance at 450 nm on a Victor X5 plate reader. Data analysis was performed using a sigmoidal dose-response model within Prism™ software. […] Percent blockade was calculated as the ratio of the reduction in signal observed in the presence of antibody relative to the difference between the signal with IL-33 alone and background (signal from HRP-conjugated secondary antibody or streptavidin alone). The absorbance measured for the constant concentration of biotin-hIL-33 or MfIL-33-6His alone is defined as 0% blocking and the absorbance measured for no added IL-33 is defined as 100% blocking.

% Maximum blocking	IC50	Binder
55%	0.19 nM	B1
80%	0.45 nM	B2
66%	0.44 nM	B3
68%	22 nM	B4
78%	0.35 nM	B5
69%	0.32 nM	B6

target: T1, human IL-33 (R&D Systems, …); test: BLI; hIL-33 pre-mixed with mAb-2 Isotype control 1
Procedure: Binding competition between a panel of different anti-IL-33 monoclonal antibodies was determined using a real time, label-free bio-layer interferometry assay on an Octet® HTX biosensor (ForteBio, A Division of Pall Life Sciences). The experiment was performed at 25° C. using a buffer of 0.01M HEPES pH7.4, 0.15M NaCl, 0.05% v/v Surfactant Tween-20, and 0.1 mg/ml BSA (HBS-ET kinetics buffer) with the plate shaking at a speed of 1000 rpm. To assess whether two antibodies were able to compete with one another for binding to human IL-33, a pre-mix assay format was used where 100 nM of human IL-33 (R&D Systems; #3625-IL-010/CF) was pre-mixed with 500 nM of different anti-IL-33 monoclonal antibodies (subsequently referred to as mAb-2) for at least 2 hours prior to running the binding competition assay. […] Following the capture step, unoccupied anti-mouse Fc polyclonal antibody and anti-human Fc polyclonal antibody on the Octet biosensors were saturated by submerging them for 4 minutes into wells containing 200 μg/mL of a non-specific monoclonal antibody with a mouse Fc or with a human Fc, respectively. Finally, the Octet biosensors were immersed for 4 minutes into wells containing the pre-mixed samples of 100 nM of human IL-33 and 500 nM of mAb-2. At the end of each cycle, the non-covalently captured anti-IL-33 antibodies along with the bound pre-complex of human IL-33 and mAb-2 were removed from the biosensors using three alternate 20 second immersions into 10 mM HCl followed by submerging into HBS-ET kinetics buffer. The biosensors were washed in HBS-ET kinetics buffer in between every step of the experiment. The real-time binding response was monitored during the binding events, and the binding response (in units of nm) at the end of every step was recorded.

mAb-1 Binding to the Pre-complex of mAb-2 & hIL-33	Binder
0.05 nm	B1
0.22 nm	B2
0.21 nm	B3
-0.01 nm	B4
0.18 nm	B5
0.06 nm	B6
